Results reported in article PMC7614924.

Target: 0N4R isoform of human tau bearing P301S with a C-terminal Venus tag (Sarkosyl-insoluble filaments from seeded HEK293 cells) (human)

- percent of HEK293 P301S tau-Venus cells with aggregates (Venus fluorescence) 24 h after 100 nM recombinant tau fibrils with lipofectamine: 20%
Substance: Recombinant N-terminally 6xHis-tagged human P301S 0N4R tau (heparin-assembled fibrils) (natural protein)
